Results published in US9688764B2, “Methods of treating breast cancer by administering anti-human prolactin receptor (PRLR) antibodies” (REGENERON PHARMACEUTICALS, INC., priority 2013, dated 2017).

B1: H1H6960N-DM1 (conjugate)
VH: EVQLVESGGGLVKPGGSLRLSCAASGITFSSYSMNWVRQAPGKGLEWVSSISTRSSLIHYADSVKGRFTISRDNAKNSLYLQMNSLRDEDTAVYYCARWDAAAAFDYWGQGTLVIVSS
VL: DIQLTQSPSFLSASVGDRVTITCWASQGISSYLAWYQQKPGKAPKLLIYVASTLQSGVPSRFSGSGSGTEFTLTISSLQPEDFATYFCQQLNSYPLTFGGGTKVEIK
B2: H1H6959N2-DM1 (conjugate)
VH: EVQLVESGGGLVQPGRSLRLSCAASGFTFDDYAMHWVRQAPGKGLEWVSGISWHSGIIGYADSVKGRFTISRDNAKNSLYLQMNSLRTEDAALYYCAKIGSYFYFDSWGQGTLVTVSS
VL: EIVLTQSPGTLSLSPGERATLSCRASQSVSSNYLAWYQQKPGQAPRLLIYGASSRATGIPDRFSGSGSGTDFTLTISRLEPEDFAVYYCQQFGSSGYTFGQGTNLEIK
B3: H1H6975N-DM1 (conjugate)
VH: EVHLVESGGGLVQPGGSLRLSCAASGFTFSSYEMNWVRQTPGKGLEWISHISSRSVIIYYADSVKGRFTISRDNAKNSLFLQMNSLRAEDTAVYFCAGITIFGIPEYWGQGTLVTVSS
VL: EIVLTQSPATLSLSPGERATLSCRASQSVSSYFAWYQQKPGQAPRLLIYDASSRATGIPTRFSGSGSGTDFTLTISSLEPEDFAVYYCQQRSSWPITFGQGTRLEIK
B4: H1H6782P-DM1: anti-PRLR antibody H1H6782P conjugated to DM1 through an SMCC linker (conjugate)
VH: EVQLVESGGGLVQPGRSLRLSCAASGFTFDDYAMHWVRQAPGKGLEWVSGIIWNSGHIGYGDSVKGRFTISRDNAKKSLYLQMNSLRAEDTALYYCARDSGRYQSYFDYWGQGTLVTVSS
VL: DIQMTQSPSTLSASVGDRVTITCRASHIISSWLAWYQQKPGKAPKVLIFKASSLESGVPSRFSGSGSGTEFTLTISSLQPDDFATYYCQQYNTYSRTFGQGTKVEIK

Columns and labels:
[1] = Conjugate characterization: protein and linker/payload concentrations, payload loading (UV, MALDI-TOF, SEC-HPLC, RP-HPLC); format: physicochemical; conditions: Anti-PRLR-SMCC-DM1 conjugates; Table 9
Excerpt: Selected anti-PRLR antibodies were conjugated to the maytansinoid DM1 through an SMCC linker using methods similar to those set forth in U.S. Pat. No. 5,208,020 and US Patent Application Publication No. 2010/0129314, the disclosures of which are incorporated by reference herein in their entireties. The conjugates were purified by size exclusion chromatography and sterile filtered. All starting materials and solvents were purchased commercially and used without purification, unless otherwise noted.
Protein and linker/payload concentrations were determined by UV spectral analysis and MALDI-TOF mass spectrometry. Size-exclusion HPLC established that all conjugates used were >95% monomeric, and RP-HPLC established that there was <0.5% unconjugated linker payload. Yields are reported in Table 8 and 9 based on protein. All conjugated antibodies were analyzed by UV for linker payload loading values according to Hamblett et al, 2004, Clinical Cancer Research 10(20):7063-7070, and by mass difference, native versus conjugated.

T47D cells = test: Cell viability (cell kill) assay; format: cell-based; conditions: T47D, Table 12, 3 days; for IC50: read-out: IC50
Method: (§1) Next, the ability of anti-PRLR-DM1 antibody-drug conjugates (i.e., anti-PRLR antibodies conjugated to DM1 via a non-cleavable linker [SMCC]) to reduce cell viability was determined using in vitro cell based assays. Cells were seeded in PDL-coated 96 well plates at 1500 to 10000 cells per well in complete growth media and allowed to grow overnight. For cell viability curves, ADCs or free DM1 (as the methyl disulfide derivative DM1-SMe) were added to the cells at final concentrations ranging from 500 nM to 5 pM and incubated for 3 days. The 293, PC3 and T47D cells were incubated with CCK8 (Dojindo, Rockville, Md.) for the final 1-3 hours and the absorbance at 450 nm (OD450) was determined on a Flexstation3 (Molecular Devices, Sunnyvale, Calif.). MCF7 cells were treated with Hoechst 33342 nuclear stain while being fixed with 4% formaldehyde. Images were acquired on the ImageXpress micro XL (Molecular Devices, Sunnyvale, Calif.) and nuclear counts were determined via Columbus image analysis software (Perkin Elmer, Shelton, Conn.). Background OD450 values (PC3, 293, and T47D) or nuclear counts (MCF7) from digitonin (40 nM) treated cells was subtracted from all wells and viability was expressed as a percentage of the untreated controls. IC50 values were determined from a four-parameter logistic equation over a 10-point response curve (GraphPad Prism).
Additionally, the impact of the PRLR ligand, PRL, on PRLR-SMCC-DM1 cell kill in T47D cells was assessed. T47D cells were incubated simultaneously with PRL (15 nM) and either a non-blocking anti PRLR antibody (H1H6782P) or a receptor blocking antibody (H1H6958N2).
(§2) Additional toxins (DM4, MeNHC3-May, and MMD) conjugated to anti-PRLR antibodies were also tested in T47D and MCF7/hPRLR cell lines, and results are summarized in Tables 19 (293 and T47D cell killing) and 20 (MCF7/ATCC and MCF7/PRLR cell killing). (ND=not detected).

PC3/hPRLR cells = test: Cell viability (cell kill) assay; format: cell-based, human; conditions: PC3/PRLR; Table 11; 3 days
Excerpt: (§3) PRLR-overexpressing cells, including HEK293, PC3, MCF7 and NCI-N87, were generated to assess the ability of anti-PRLR conjugated antibodies to reduce cell viability. For comparative purposes, PC3 and T47D cells with overexpressed ErbB2 were also generated, as well as an MCF7 cell line over-expressing both hPRLR and hErbB2. Briefly, Lipofectamine® 2000-mediated transfection methodology was utilized to generate HEK293 cells expressing human PRLR (HEK293/hPRLR) or human ErbB2 (HEK293/hErbB2). Lipofectamine LTX with Plus Reagent was used to generate PC3 cells expressing human PRLR (PC3/hPRLR) or human ErbB2 (PC3/hErbB2). Lentiviral-mediated transduction was utilized to generate MCF7 cells expressing human PRLR (MCF7/hPRLR), NCI-N87 cells expressing human PRLR (NCI-N87/hPRLR), T47D cells over-expressing human ErbB2 (T47D/hErbB2), and MCF7 cells expressing both human PRLR and human ErbB2 (MCF7/hPRLR/hErbB2). All lines were selected for at least two weeks in complete growth media plus appropriate selection reagents. Stably expressing populations were enriched for PRLR expression via FACS using the anti PRLR antibody Control I.
as §1
(§4) Finally, the potency of anti-PRLR antibodies conjugated to DM1 via the non-cleavable linker SMCC was compared to the cell killing potency of anti-PRLR antibodies conjugated to MMAE via the cleavable linker: mc-vc-PAB (available from Concortis, San Diego, Calif.). Cells used in this experiment were PC3, PC3/hPRLR, MCF7/ATCC and MCF7/PRLR.

HEK293 (293) cells = test: Cell viability (cell kill) assay; format: cell-based; conditions: 293; Table 11; 3 days
Excerpt: as §3, §1

[2] = test system: MCF7/hPRLR (MCF7/PRLR) cells; test: Cell viability (cell kill) assay, nuclear counts; format: cell-based, human; conditions: Table 12, 3 days
Excerpt: as §3, §1, §4, §2

[3] = test system: HEK293/hPRLR (293/hPRLR) cells; test: Cell viability (cell kill) assay; format: cell-based, human; conditions: 293/PRLR, Table 11, 3 days; for IC50: read-out: IC50
Excerpt: as §3, §1

MCF7 (MCF7/ATCC) cells = test: Cell viability (cell kill) assay, nuclear counts; format: cell-based; conditions: MCF7; Table 12; 3 days
Excerpt: as §3, §1, §4, §2

PC3/PRLR tumors = test: Tumor growth inhibition in xenograft-bearing mice; format: in vivo, SCID mice; conditions: for Average Tumor Growth Inhibition (%): multi-dose 15 mg/kg, SCID mice
Excerpt: (§5) Briefly, 20×10^6 MCF7/PRLR cells (ATCC HTB-22 transfected with full length hPRLR as previously described) were implanted subcutaneously into the left mammary fat pad of female NCr nude mice. In other studies, 10×10^6 PC3/PRLR (ATCC CRL-1435 transfected with full length hPRLR as previously described) were implanted subcutaneously into the left flank of male SCID mice. Additionally, 10×10^6 parental T47D (ATCC HTB-133) or […] T47D#11 cells (ATCC HTB-133 serially passaged in vivo as described below) were subcutaneously implanted into the left flank of female CB17 SCID mice. All mice were obtained from Taconic (Hudson, N.Y.). Each bolus of cells was supplemented with a 90-day estrogen release pellet (1.7 mg/pellet; Innovative Research America, Sarasota Fla.). Once tumors had reached an average volume of 250 mm^3, mice were randomized into groups of seven and dosed with anti-PRLR antibody-drug conjugates of the invention or control reagents. Control reagents included PBS vehicle, free methyl-disulfide DM1 (DM1-SMe) and isotype Control 1-DM1.
(§6) In multi-dose studies, mice were dosed once a week for a total of three weeks with tumor volumes and body weights being monitored twice weekly throughout the study. Test ADCs were dosed at 5 and/or 15 mg/kg in the multi-dose studies. In single-dose studies, mice received a single dose of test ADC, and tumor volumes and body weights were monitored twice weekly throughout the study. Test ADCs were dosed at 1, 2.5, 5, and 15 mg/kg in the single-dose studies. Average tumor size as well as tumor growth inhibition relative to the vehicle treated group were calculated for each group. Tumors were measured with calipers twice a week until the average size of the vehicle group reached 1000 mm^3. Tumor size was calculated using the formula (length×width^2)/2. Tumor growth inhibition was calculated according to the following formula: (1−((Tfinal−Tinitial)/(Cfinal−Cinitial)))*100, where T (treated group) and C (control group) represent the mean tumor mass on the day the vehicle group reached 1000 mm^3. […] Results are summarized in Tables 21-25 (multi-dose) and Table 26 (single dose). (NT=not tested in the particular experiment shown).

PC3 cells = test: Cell viability (cell kill) assay; format: cell-based; conditions: Table 11, 3 days
Excerpt: as §3, §1, §4

MCF7/PRLR tumors = test: Tumor growth inhibition in xenograft-bearing mice; format: in vivo, NCr nude mice; conditions: for Final Tumor size mm^3 (mean ± SEM): MCF7/PRLR tumors TRIAL #2, NCr Nude mice, Day 63
Excerpt: as §5, §6

T47D#11 tumors = test: Tumor growth inhibition in xenograft-bearing mice; format: in vivo, CB17 SCID mice
Excerpt: as §5, §6

Row | Molecule | Payload:Antibody Molar Ratio (MS) [1] | Payload:Antibody Molar Ratio (UV) [1] | % Kill (T47D cells) | IC50 (T47D cells) | % Kill (PC3/hPRLR cells) | IC50 (PC3/hPRLR cells) | % Kill (HEK293 (293) cells) | % Kill [2] | IC50 [2] | % Kill [3] | IC50 [3] | % Kill (MCF7 (MCF7/ATCC) cells) | IC50 (MCF7 (MCF7/ATCC) cells) | IC50 (HEK293 (293) cells) | further results
1 | B1 | 3.0 | 3.6 | 71% | 5.1 nM | 82% | 1.13 nM | 100% | 78% | 0.29 nM | 95% | 0.38 nM | 77% | 100 nM | – | –
2 | B2 | 3.3 | 3.8 | 71% | 48.9 nM | 82% | 11.6 nM | 100% | 80% | 0.47 nM | 95% | 4.82 nM | 82% | 100 nM | – | –
3 | B3 | – | – | 80% | 6.9 nM | 68% | 2.7 nM | 87% | 87% | 0.49 nM | – | – | 73% | 150 nM | 100 nM | Average Tumor Growth Inhibition (%) (PC3/PRLR tumors; PC3/PRLR tumors TRIAL #1, Day 63): 38%; effect on PC3/PRLR tumor growth (PC3/PRLR tumors; multi-dose, especially at 15 mg/kg): demonstrated inhibition of tumor growth; IC50 (PC3 cells): 200 nM; effect on MCF7/PRLR tumor growth (MCF7/PRLR tumors; multi-dose trial 1, 5 and 15 mg/kg): potently inhibited MCF7/PRLR tumor growth
4 | B4 | 2.8 | – | 74% | 4.19 nM | 64% | 0.92 nM | – | 85% | 0.65 nM | – | – | 57% | 120 nM | 100 nM | Average Tumor Growth Inhibition (%) (PC3/PRLR tumors; PC3/PRLR tumors TRIAL #2, Day 55): 85%; Average Tumor Growth Inhibition (%) (T47D#11 tumors; T47D#11 tumors, multi-dose 5 mg/kg, SCID mice, Day 66): 90%; effect on T47D#11 tumor growth (T47D#11 tumors; multi-dose, 5 and 15 mg/kg): potently inhibited tumor growth; Final Tumor size mm^3 (mean ± SEM) (MCF7/PRLR tumors; multi-dose 5 mg/kg): 74 ± 34 mm^3; Final Tumor size mm^3 (mean ± SEM) (MCF7/PRLR tumors; multi-dose 15 mg/kg): 0 ± 0 mm^3
